Experimental data reported in US20260055162A1.

Experiments:
Experiment in all cases: cell-based or functional assay
[1] = molecular target: AA-SR-106 (SR-106), IL10RA ECD-IL10RA TM-CD3z ICD
[2] = molecular target: AA-SR-121 (SR-121), IL10RA ECD-CD28 TM-CD3z ICD
[3] = molecular target: AA-SR-107 (SR-107), IL10RB ECD-IL10RB TM-CD3z ICD
[4] = molecular target: AA-SR-122 (SR-122), IL10RB ECD-CD28 TM-CD3z ICD
[5] = molecular target: AA-SR-111 (SR-111), PD1 ECD-PD1 TM-CD3z ICD
[6] = molecular target: AA-SR-126 (SR-126), PD1 ECD-CD28 TM-CD3z ICD
Chain of AA-SR-126 (SR-126), PD1 ECD-CD28 TM-CD3z ICD (chain, as listed by the source limits assumed, form in doubt): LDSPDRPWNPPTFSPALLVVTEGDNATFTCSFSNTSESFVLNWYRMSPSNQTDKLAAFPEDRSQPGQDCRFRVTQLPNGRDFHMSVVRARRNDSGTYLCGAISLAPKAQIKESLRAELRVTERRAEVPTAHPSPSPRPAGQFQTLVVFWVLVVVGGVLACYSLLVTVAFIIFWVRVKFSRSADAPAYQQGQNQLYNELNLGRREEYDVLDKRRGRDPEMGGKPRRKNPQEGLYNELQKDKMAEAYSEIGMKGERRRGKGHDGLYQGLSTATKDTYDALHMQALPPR

[7] = molecular target: AA-TGFB-007 (TGFB-007), TGF-BR2 ECD-TGFBR2 TM-TGFBR2 truncated ICD (Homo sapiens (Human)) (UniProt P37173)
Chain of AA-TGFB-007 (TGFB-007), TGF-BR2 ECD-TGFBR2 TM-TGFBR2 truncated ICD (Homo sapiens (Human)) (P37173 23-199, form in doubt): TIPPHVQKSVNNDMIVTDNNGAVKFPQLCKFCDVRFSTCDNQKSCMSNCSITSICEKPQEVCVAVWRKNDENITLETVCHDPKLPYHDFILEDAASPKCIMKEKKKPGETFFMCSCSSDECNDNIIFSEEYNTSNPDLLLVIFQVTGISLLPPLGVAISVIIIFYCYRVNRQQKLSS

[8] = molecular target: AA-TGFB-021 (TGFB-021), TGF-BR2 ECD-CD28 TM-CD3z ICD
Chain of AA-TGFB-021 (TGFB-021), TGF-BR2 ECD-CD28 TM-CD3z ICD (chain, as listed by the source limits assumed, form in doubt): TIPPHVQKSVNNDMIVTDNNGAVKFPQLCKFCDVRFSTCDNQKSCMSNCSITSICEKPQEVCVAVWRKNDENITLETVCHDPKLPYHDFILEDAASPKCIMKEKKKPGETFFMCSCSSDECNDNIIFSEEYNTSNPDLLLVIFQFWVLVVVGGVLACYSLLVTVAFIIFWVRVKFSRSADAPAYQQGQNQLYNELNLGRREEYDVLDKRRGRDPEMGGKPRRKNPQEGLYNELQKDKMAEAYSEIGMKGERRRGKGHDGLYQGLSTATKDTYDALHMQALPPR

[9] = molecular target: AA-SR-128 (SR-128), TIGIT ECD-CD28 TM-CD3z ICD
Chain of AA-SR-128 (SR-128), TIGIT ECD-CD28 TM-CD3z ICD (chain, as listed by the source limits assumed, form in doubt): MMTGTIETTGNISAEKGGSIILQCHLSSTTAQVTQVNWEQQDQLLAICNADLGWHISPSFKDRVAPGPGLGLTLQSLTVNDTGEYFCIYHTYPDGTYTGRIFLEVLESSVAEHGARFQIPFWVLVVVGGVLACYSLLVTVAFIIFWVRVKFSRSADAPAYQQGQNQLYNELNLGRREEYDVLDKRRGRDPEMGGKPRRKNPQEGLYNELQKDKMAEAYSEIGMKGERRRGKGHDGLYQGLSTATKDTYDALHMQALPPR

[10] = molecular target: AA-SR-113 (SR-113), TIGIT ECD-TIGIT TM-CD3z ICD
Chain of AA-SR-113 (SR-113), TIGIT ECD-TIGIT TM-CD3z ICD (chain, as listed by the source limits assumed, form in doubt): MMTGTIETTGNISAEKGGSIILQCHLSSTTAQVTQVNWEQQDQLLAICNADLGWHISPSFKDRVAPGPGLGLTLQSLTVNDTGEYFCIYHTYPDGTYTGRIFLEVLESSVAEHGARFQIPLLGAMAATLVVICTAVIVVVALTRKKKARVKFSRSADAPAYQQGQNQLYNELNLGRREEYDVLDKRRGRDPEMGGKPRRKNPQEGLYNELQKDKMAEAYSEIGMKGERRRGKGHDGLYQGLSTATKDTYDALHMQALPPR

[11] = molecular target: AA-SR-124 (SR-124), GP130 ECD-CD28 TM-CD3z ICD
Chain of AA-SR-124 (SR-124), GP130 ECD-CD28 TM-CD3z ICD (chain, as listed by the source limits assumed, form in doubt): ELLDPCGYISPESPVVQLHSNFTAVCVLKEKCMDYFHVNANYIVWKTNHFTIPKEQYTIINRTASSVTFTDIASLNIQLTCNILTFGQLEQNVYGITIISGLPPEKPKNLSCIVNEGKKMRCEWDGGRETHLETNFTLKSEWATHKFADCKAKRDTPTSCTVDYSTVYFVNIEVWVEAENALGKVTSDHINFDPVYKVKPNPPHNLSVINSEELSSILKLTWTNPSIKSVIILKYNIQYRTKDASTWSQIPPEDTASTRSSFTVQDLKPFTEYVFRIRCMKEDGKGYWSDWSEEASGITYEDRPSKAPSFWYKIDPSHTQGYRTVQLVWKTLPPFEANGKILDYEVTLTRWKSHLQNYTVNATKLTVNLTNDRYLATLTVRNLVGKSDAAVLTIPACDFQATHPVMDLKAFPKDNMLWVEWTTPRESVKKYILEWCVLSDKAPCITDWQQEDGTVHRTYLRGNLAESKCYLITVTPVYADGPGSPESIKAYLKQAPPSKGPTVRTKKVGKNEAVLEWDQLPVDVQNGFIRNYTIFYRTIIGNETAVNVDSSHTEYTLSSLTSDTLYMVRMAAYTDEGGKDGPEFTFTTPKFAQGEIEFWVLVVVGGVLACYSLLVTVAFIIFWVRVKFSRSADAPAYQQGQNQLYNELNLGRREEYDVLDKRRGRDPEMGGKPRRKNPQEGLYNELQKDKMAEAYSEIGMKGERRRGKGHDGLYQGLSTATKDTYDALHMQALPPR

[12] = molecular target: AA-SR-109 (SR-109), GP130 ECD-GP130 TM-CD3z ICD
Chain of AA-SR-109 (SR-109), GP130 ECD-GP130 TM-CD3z ICD (chain, as listed by the source limits assumed, form in doubt): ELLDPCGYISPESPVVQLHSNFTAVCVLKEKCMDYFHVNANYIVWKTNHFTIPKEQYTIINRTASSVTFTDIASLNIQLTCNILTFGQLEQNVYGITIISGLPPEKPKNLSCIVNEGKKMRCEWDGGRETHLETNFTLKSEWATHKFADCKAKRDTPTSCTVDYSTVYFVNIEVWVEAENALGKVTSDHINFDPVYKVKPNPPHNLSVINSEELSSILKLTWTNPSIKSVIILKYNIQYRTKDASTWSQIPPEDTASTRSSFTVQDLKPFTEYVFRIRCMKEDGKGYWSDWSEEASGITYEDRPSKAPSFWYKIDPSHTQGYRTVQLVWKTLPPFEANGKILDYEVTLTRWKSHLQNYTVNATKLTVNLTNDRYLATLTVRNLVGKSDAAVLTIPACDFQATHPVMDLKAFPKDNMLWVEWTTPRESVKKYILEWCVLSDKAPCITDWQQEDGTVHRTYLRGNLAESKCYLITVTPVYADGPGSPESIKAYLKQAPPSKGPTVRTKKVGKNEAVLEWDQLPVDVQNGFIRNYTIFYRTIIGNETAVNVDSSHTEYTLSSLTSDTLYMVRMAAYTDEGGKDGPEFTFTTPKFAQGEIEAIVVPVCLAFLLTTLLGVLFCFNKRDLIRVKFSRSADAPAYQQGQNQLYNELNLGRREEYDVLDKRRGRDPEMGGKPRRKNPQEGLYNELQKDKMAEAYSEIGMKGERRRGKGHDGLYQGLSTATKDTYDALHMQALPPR

Chain of AA-SR-106 (SR-106), IL10RA ECD-IL10RA TM-CD3z ICD (chain, as listed by the source limits assumed, form in doubt): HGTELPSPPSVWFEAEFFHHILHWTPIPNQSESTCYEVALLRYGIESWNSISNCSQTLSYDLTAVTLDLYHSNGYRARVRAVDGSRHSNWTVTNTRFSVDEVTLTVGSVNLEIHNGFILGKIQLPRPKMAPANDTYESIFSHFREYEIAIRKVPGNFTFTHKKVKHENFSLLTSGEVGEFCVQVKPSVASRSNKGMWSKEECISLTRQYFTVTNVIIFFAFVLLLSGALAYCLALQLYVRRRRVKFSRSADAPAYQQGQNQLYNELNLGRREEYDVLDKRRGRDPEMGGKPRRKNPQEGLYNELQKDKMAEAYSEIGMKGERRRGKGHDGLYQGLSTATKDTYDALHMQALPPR
Chain of AA-SR-122 (SR-122), IL10RB ECD-CD28 TM-CD3z ICD (chain, as listed by the source limits assumed, form in doubt): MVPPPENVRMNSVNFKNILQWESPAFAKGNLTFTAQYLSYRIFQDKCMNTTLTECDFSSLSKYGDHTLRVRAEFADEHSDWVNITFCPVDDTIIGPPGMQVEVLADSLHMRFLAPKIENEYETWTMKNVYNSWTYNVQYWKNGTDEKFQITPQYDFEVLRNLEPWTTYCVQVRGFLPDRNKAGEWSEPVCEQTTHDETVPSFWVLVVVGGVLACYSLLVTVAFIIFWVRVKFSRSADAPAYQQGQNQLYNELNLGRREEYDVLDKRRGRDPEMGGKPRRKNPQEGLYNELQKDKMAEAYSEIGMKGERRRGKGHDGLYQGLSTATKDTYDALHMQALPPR
Chain of AA-SR-107 (SR-107), IL10RB ECD-IL10RB TM-CD3z ICD (chain, as listed by the source limits assumed, form in doubt): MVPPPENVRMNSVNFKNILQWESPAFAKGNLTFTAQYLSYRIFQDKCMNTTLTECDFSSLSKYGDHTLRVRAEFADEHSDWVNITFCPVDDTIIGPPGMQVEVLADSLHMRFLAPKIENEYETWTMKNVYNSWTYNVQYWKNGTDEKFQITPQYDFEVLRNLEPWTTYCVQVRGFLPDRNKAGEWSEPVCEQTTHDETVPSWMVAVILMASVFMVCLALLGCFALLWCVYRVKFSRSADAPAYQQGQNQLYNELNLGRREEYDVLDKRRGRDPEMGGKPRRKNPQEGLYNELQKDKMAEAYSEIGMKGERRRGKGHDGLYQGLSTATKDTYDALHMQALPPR
Chain of AA-SR-111 (SR-111), PD1 ECD-PD1 TM-CD3z ICD (chain, as listed by the source limits assumed, form in doubt): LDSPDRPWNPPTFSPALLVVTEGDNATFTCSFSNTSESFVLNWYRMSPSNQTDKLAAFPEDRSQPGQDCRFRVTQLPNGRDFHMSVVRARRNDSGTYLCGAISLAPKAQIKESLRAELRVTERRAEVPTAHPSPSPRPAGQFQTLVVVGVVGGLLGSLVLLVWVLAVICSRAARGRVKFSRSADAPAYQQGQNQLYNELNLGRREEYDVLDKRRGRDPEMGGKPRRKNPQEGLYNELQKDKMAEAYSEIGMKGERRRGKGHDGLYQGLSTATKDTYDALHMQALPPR
Chain of AA-SR-121 (SR-121), IL10RA ECD-CD28 TM-CD3z ICD (chain, as listed by the source limits assumed, form in doubt): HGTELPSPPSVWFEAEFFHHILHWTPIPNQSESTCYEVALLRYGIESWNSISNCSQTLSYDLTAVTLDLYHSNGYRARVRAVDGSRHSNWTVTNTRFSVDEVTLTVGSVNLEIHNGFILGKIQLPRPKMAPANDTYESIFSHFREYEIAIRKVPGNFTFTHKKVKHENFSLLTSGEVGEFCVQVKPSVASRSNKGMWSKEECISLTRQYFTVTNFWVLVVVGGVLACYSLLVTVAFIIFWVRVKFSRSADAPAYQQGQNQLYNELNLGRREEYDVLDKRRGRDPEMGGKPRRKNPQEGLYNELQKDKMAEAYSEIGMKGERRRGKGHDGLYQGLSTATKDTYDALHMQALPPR

## anti-IL-10RA mAb clone 37607 (antibody)
[1]
  CD69, fold-change of MFI over no stimulation, High (10 ug/mL): 56.8 fold
  CD69, fold-change of MFI over no stimulation, Low (0.4 ug/mL): 4.9 fold
  CD69, fold-change of MFI over no stimulation, Med. (2 ug/mL): 29.5 fold
  GFP, fold-change of MFI over no stimulation, High (10 ug/mL): 11.4 fold
  GFP, fold-change of MFI over no stimulation, Low (0.4 ug/mL): 0.8 fold
  GFP, fold-change of MFI over no stimulation, Med. (2 ug/mL): 3.3 fold
[2]
  CD69, fold-change of MFI over no stimulation, High (10 ug/mL): 14.3 fold
  CD69, fold-change of MFI over no stimulation, Low (0.4 ug/mL): 2.2 fold
  CD69, fold-change of MFI over no stimulation, Med. (2 ug/mL): 7.9 fold
  GFP, fold-change of MFI over no stimulation, High (10 ug/mL): 5.4 fold
  GFP, fold-change of MFI over no stimulation, Low (0.4 ug/mL): 1.1 fold
  GFP, fold-change of MFI over no stimulation, Med. (2 ug/mL): 2.9 fold

## anti-IL-10RB mAb clone 90220 (antibody)
[3]
  CD69, fold-change of MFI over no stimulation, High (10 ug/mL): 108 fold
  CD69, fold-change of MFI over no stimulation, Low (0.4 ug/mL): 32.2 fold
  CD69, fold-change of MFI over no stimulation, Med. (2 ug/mL): 86.1 fold
  GFP, fold-change of MFI over no stimulation, High (10 ug/mL): 13.8 fold
  GFP, fold-change of MFI over no stimulation, Low (0.4 ug/mL): 2.9 fold
  GFP, fold-change of MFI over no stimulation, Med. (2 ug/mL): 9.3 fold
[4]
  CD69, fold-change of MFI over no stimulation, High (10 ug/mL): 115 fold
  CD69, fold-change of MFI over no stimulation, Low (0.4 ug/mL): 70.1 fold
  CD69, fold-change of MFI over no stimulation, Med. (2 ug/mL): 118 fold
  GFP, fold-change of MFI over no stimulation, High (10 ug/mL): 8.2 fold
  GFP, fold-change of MFI over no stimulation, Low (0.4 ug/mL): 6.2 fold
  GFP, fold-change of MFI over no stimulation, Med. (2 ug/mL): 12.5 fold

## anti-PD-1 mAb clone EH12.2H7 (antibody)
[5]
  CD69, fold-change of MFI over no stimulation, High (10 ug/mL): 37.6 fold
  CD69, fold-change of MFI over no stimulation, Low (0.4 ug/mL): 1.2 fold
  CD69, fold-change of MFI over no stimulation, Med. (2 ug/mL): 1.9 fold
  GFP, fold-change of MFI over no stimulation, High (10 ug/mL): 5.8 fold
  GFP, fold-change of MFI over no stimulation, Low (0.4 ug/mL): 1.3 fold
  GFP, fold-change of MFI over no stimulation, Med. (2 ug/mL): 1.4 fold
[6]
  CD69, fold-change of MFI over no stimulation, High (10 ug/mL): 27.3 fold
  CD69, fold-change of MFI over no stimulation, Low (0.4 ug/mL): 1.1 fold
  CD69, fold-change of MFI over no stimulation, Med. (2 ug/mL): 1.7 fold
  GFP, fold-change of MFI over no stimulation, High (10 ug/mL): 5.5 fold
  GFP, fold-change of MFI over no stimulation, Low (0.4 ug/mL): 0.9 fold
  GFP, fold-change of MFI over no stimulation, Med. (2 ug/mL): 1.2 fold

## anti-TGF-BR2 mAb clone W17055E (antibody)
[7]
  CD69, fold-change of MFI over no stimulation, High (10 ug/mL): 2 fold
  CD69, fold-change of MFI over no stimulation, Low (0.4 ug/mL): 1.3 fold
  CD69, fold-change of MFI over no stimulation, Med. (2 ug/mL): 1.5 fold
  GFP, fold-change of MFI over no stimulation, High (10 ug/mL): 1 fold
  GFP, fold-change of MFI over no stimulation, Low (0.4 ug/mL): 0.8 fold
  GFP, fold-change of MFI over no stimulation, Med. (2 ug/mL): 0.9 fold
[8]
  CD69, fold-change of MFI over no stimulation, High (10 ug/mL): 88.2 fold
  CD69, fold-change of MFI over no stimulation, Low (0.4 ug/mL): 2.2 fold
  CD69, fold-change of MFI over no stimulation, Med. (2 ug/mL): 25.2 fold
  GFP, fold-change of MFI over no stimulation, High (10 ug/mL): 5 fold
  GFP, fold-change of MFI over no stimulation, Low (0.4 ug/mL): 0.9 fold
  GFP, fold-change of MFI over no stimulation, Med. (2 ug/mL): 2.9 fold

## anti-TIGIT mAb clone A15153G (antibody)
[9]
  CD69, fold-change of MFI over no stimulation, High (10 ug/mL): 3.4 fold
  CD69, fold-change of MFI over no stimulation, Low (0.4 ug/mL): 1.2 fold
  CD69, fold-change of MFI over no stimulation, Med. (2 ug/mL): 2.6 fold
  GFP, fold-change of MFI over no stimulation, High (10 ug/mL): 1.7 fold
  GFP, fold-change of MFI over no stimulation, Low (0.4 ug/mL): 0.6 fold
  GFP, fold-change of MFI over no stimulation, Med. (2 ug/mL): 1.2 fold
[10]
  CD69, fold-change of MFI over no stimulation, High (10 ug/mL): 17.1 fold
  CD69, fold-change of MFI over no stimulation, Low (0.4 ug/mL): 7.2 fold
  CD69, fold-change of MFI over no stimulation, Med. (2 ug/mL): 17.1 fold
  GFP, fold-change of MFI over no stimulation, High (10 ug/mL): 4.6 fold
  GFP, fold-change of MFI over no stimulation, Low (0.4 ug/mL): 0.9 fold
  GFP, fold-change of MFI over no stimulation, Med. (2 ug/mL): 2.2 fold

## anti-gp130 mAb clone 28126 (antibody)
[11]
  CD69, fold-change of MFI over no stimulation, High (10 ug/mL): 64.1 fold
  CD69, fold-change of MFI over no stimulation, Low (0.4 ug/mL): 1.8 fold
  CD69, fold-change of MFI over no stimulation, Med. (2 ug/mL): 40.7 fold
  GFP, fold-change of MFI over no stimulation, High (10 ug/mL): 3 fold
  GFP, fold-change of MFI over no stimulation, Low (0.4 ug/mL): 0.5 fold
  GFP, fold-change of MFI over no stimulation, Med. (2 ug/mL): 3.9 fold
[12]
  CD69, fold-change of MFI over no stimulation, High (10 ug/mL): 123 fold
  CD69, fold-change of MFI over no stimulation, Low (0.4 ug/mL): 1.1 fold
  CD69, fold-change of MFI over no stimulation, Med. (2 ug/mL): 22 fold
  GFP, fold-change of MFI over no stimulation, High (10 ug/mL): 6.3 fold
  GFP, fold-change of MFI over no stimulation, Low (0.4 ug/mL): 0.5 fold
  GFP, fold-change of MFI over no stimulation, Med. (2 ug/mL): 2.6 fold
